We go through 12 molecules from US20040018205A1.

Like-named read-outs stand apart in the source and are kept apart here. Non-standard residues stand in square brackets, D forms with d. No end group written: not given here. Abu = CC[C@H](N)C(=O)O

The target in assay [1] is soluble HLA-A2.01 molecules. The assay is described as follows: competition with 125I-F10V for HLA-A2.01, ratio peptide/125I-F10V 10/1.
Assay [2] deals with soluble HLA-A2.01 molecules. The assay is described as follows: competition with 125I-F10V for HLA-A2.01, ratio peptide/125I-F10V 25/1.
Assay [3] concerns the target HLA-A2.01 molecule at the surface of T2 cells. Nature of the assay: T2 cell HLA-A2.01 stabilization; concentration ratio against the reference peptide for 20% of maximal stabilized molecules.
The target is the same in assay [4]. The assay is described as follows: T2 cells loaded overnight; residual surface complexes by indirect immunofluorescence and FACS at 0, 2, 4 and 5 h.
Assay [5] shares this target.

On to YIAEAILGM (modifications not checked) [Y9M-5A], for which the percentage inhibition of the binding of 125I-F10V, ratio 10/1 in assay [1] is 79%. For the same molecule, the percentage inhibition of the binding of 125I-F10V, ratio 25/1 in assay [2] stood at 87%. Besides, the RA in assay [3] is 0.9.
PIGRIAECI (modifications not checked) [P9I]: the DC50 (half-life of the peptide-HLA-A2.1 complex) in assay [4] came to 0 h.
As for YIGRIAECI (modifications not checked) [Y9I], the DC50 (half-life of the peptide-HLA-A2.1 complex) in assay [4] was below 2 h.
Regarding RIAE[Abu]ILGM [R9M-5α-but], the percentage inhibition of the binding of 125I-F10V, ratio 10/1 in assay [1] is 27%. For the same molecule, the percentage inhibition of the binding of 125I-F10V, ratio 25/1 in assay [2] amounted to 49%. The DC50 (half-life of the peptide-HLA-A2.1 complex) in assay [4] was found to be 2 h. Moreover, the RA in assay [3] was 2.
In turn, YMPIGRIAE (modifications not checked) [Y9E] showed a DC50 (half-life of the peptide-HLA-A2.1 complex) in assay [4] of 0 h.
For AMPIGRIAE (modifications not checked) [A9E], the percentage inhibition of the binding of 125I-F10V, ratio 10/1 in assay [1] amounted to 47%. In assay [2], the percentage inhibition of the binding of 125I-F10V, ratio 25/1 was 57%.
In assay [4], YIAECILGM (modifications not checked) [Y9M] showed a DC50 (half-life of the peptide-HLA-A2.1 complex) below 2 h.
On to RIAECILGM (modifications not checked) [wildtype R9M peptide], for which the percentage inhibition of the binding of 125I-F10V, ratio 10/1 in assay [1] is 64%. For the same molecule, in assay [2], the percentage inhibition of the binding of 125I-F10V, ratio 25/1 was 69%. In assay [4], this molecule registered a DC50 (half-life of the peptide-HLA-A2.1 complex) below 2 h. Besides, in assay [3], the RA worked out at 2.9.
In the case of YIAE[Abu]ILGM [Y9M-5α-but], the percentage inhibition of the binding of 125I-F10V, ratio 10/1 in assay [1] is 26%. Besides, in assay [2], the percentage inhibition of the binding of 125I-F10V, ratio 25/1 was 26%. Further, in assay [3], the RA stood at 0.7.
For the molecule RIAEAILGM (modifications not checked) [R9M-5A], in assay [1], the percentage inhibition of the binding of 125I-F10V, ratio 10/1 turned out to be 59%. In addition, the percentage inhibition of the binding of 125I-F10V, ratio 25/1 in assay [2] was found to be 72%. In addition, in assay [4], the DC50 (half-life of the peptide-HLA-A2.1 complex) is below 2 h. Besides, in assay [3], the RA was 3.2.
In assay [5], RIAESILGM (modifications not checked) [R9M-5S] returned a DC50 (half-life of the peptide-HLA-A2.1 complex) of 2 h and an RA of 2.2. In addition, the percentage inhibition of the binding of 125I-F10V, ratio 10/1 in assay [1] worked out at 74%. Also, in assay [2], the percentage inhibition of the binding of 125I-F10V, ratio 25/1 came out at 75%.
As for YIAESILGM (modifications not checked) [Y9M-5S], the percentage inhibition of the binding of 125I-F10V, ratio 10/1 in assay [1] worked out at 25%. Besides, the percentage inhibition of the binding of 125I-F10V, ratio 25/1 in assay [2] worked out at 37%. Also, the RA in assay [3] is 1.4.
